Data as given in PMC10950897, “VCF1 is a p97/VCP cofactor promoting recognition of ubiquitylated p97-UFD1-NPL4 substrates” (Nature Communications, 2024).

Assays:
[1] = tested on: NPL4, U2OS/Ub(G76V)-GFP cells; assay: Immunoblot of siRNA knockdown efficiency; assay type: cell-based, human
Procedure: All siRNAs (Sigma) were used at 20 nM and transfected with Lipofectamine RNAiMAX reagent (Thermo) according to manufacturer’s instructions. The following siRNA oligonucleotides were used: Non-targeting control (CTRL): 5′-[…]-3′; VCF1(#1): 5’-[…]-3’; VCF1(#2): 5’-[…]-3’; p47: 5’-[…]-3’; NPL4: 5’-[…]-3’; FAF1: 5′-[…]-3′; p97: Dharmacon SmartPool (D-008727).
Immunoblotting was performed as previously described. Immunoprecipitation (IP) of HA-tagged proteins was performed using Anti-HA Affinity matrix (Roche) under denaturing conditions, unless otherwise stated. GFP-trap and […] Fab-trap agarose (Chromotek) were used according to manufacturer’s instructions. Cell lysis was performed using RIPA buffer (140 mM NaCl; 10 mM Tris-HCl, pH 8.0; 0.1% sodium deoxycholate; 1% Triton X-100; 0.1% SDS; 1 mM EDTA; 0.5 mM EGTA) or EBC buffer (50 mM Tris, pH 7.5; 150 mM NaCl; 1 mM EDTA; 0.5% NP-40, 1 mM DTT). IPs were washed in non-denaturing buffer (50 mM Tris-HCl, pH 7.5; 150 mM NaCl; 0.5 mM EDTA). Cell lysis and IP under partially denaturing conditions were performed using denaturing buffer (20 mM Tris-HCl, pH 7.5; 50 mM NaCl; 0.5% sodium deoxycholate; 0.5% NP-40; 0.5% SDS; 1 mM EDTA). […]

Ub(G76V)-GFP, U2OS cells = assay: QIBC of Ub(G76V)-GFP after siRNA; assay type: cell-based, human; conditions: siRNA 20 nM, QIBC >10,000 cells
Procedure: (§1) U2OS (catalog no. HTB-96) cells were obtained from ATCC. HEK293-EBNA1-6E cells were a kind gift from Yves Durocher (National Research Council Canada, Montreal, Canada). All mammalian cell lines were cultured under standard conditions at 37 °C and 5% CO2 in DMEM (Thermo) supplemented with 10% FBS (v/v) and penicillin-streptomycin (Thermo). Recombination cloning-compatible U2OS cells were generated using the Flp-In T-Rex Core Kit (Thermo) according to the manufacturer’s instructions and maintained under selection using Blasticidin (Invivogen) and Zeocin (Thermo). To generate cell lines stably expressing GFP-VCF1, U2OS Flp-In T-Rex cells (Thermo) were co-transfected with GFP-VCF1 constructs and pOG44 (Thermo) plasmids, followed by selection with Hygromycin (Invitrogen). Single clones were carefully screened for uniform expression of ectopic GFP-VCF1 at low levels and maintained under selection with Blasticidin and Hygromycin. To induce GFP-VCF1 expression, cells were treated with Doxycycline (DOX) (0.5 µg/ml) for 16 h. U2OS cell lines stably expressing Ub(G76V)-GFP or Ub(G76V)-GFP-20AA were described previously. A U2OS cell line stably expressing Ub(G76V)-GFP-NES was generated under G418 (Invivogen) selection. […]
(§2) Mammalian cells grown on coverslips were fixed in formalin buffer (VWR) for 15 min at room temperature (RT). […] Quantitative image-based cytometry (QIBC) was performed as described. […]

[2] = tested on: p97-UFD1-NPL4 binding to K48-Ub2-7; assay: FLAG IP: p97-UFD1-NPL4 binding to K48-linked ubiquitin chains, purified proteins; assay type: biochemical, human; conditions: high protein amounts, mild buffer
Procedure: All in vitro binding experiments were performed in EBC or RIPA buffer as indicated. Recombinant Biotin-tagged K48-linked poly-ubiquitin chains (2−7) and K48-linked poly-ubiquitin chains (2−16) were purchased from R&D Systems and Enzo Life Science, respectively. Recombinant proteins were incubated with Strep-Tactin Sepharose (IBA), Glutathione agarose (Gold Biotechnology) or […] Fab-trap agarose (ChromoTek) overnight on an end-over-end rotator at 4 °C, washed six times with EBC or RIPA buffer, and resuspended in 2×Laemmli sample buffer. For p97, VCF1 or p47 pulldowns, antibodies (0.5 µg/sample) were coupled to agarose beads, incubated with recombinant proteins or cell lysates and washed with the indicated buffer. To assess p97-UFD1-NPL4 binding to ubiquitylated proteins in total cell extracts, U2OS cells were lysed in EBC buffer supplemented with protease and phosphatase inhibitors, sonicated and incubated on ice for 10 min. Lysates were cleared by centrifugation for 10 min at 16,100 × g. Cell lysate (40 µg) was added to recombinant proteins in EBC buffer, incubated overnight on the rotator with […] Fab-trap agarose (ChromoTek), and beads were washed six times.

p97 = assay: GFP IP of GFP-VCF1 alanine mutants from U2OS cells; assay type: binding, human; conditions: full-length GFP-VCF1, U2OS
Procedure: (§3) Immunoblotting was performed as previously described. Immunoprecipitation (IP) of HA-tagged proteins was performed using Anti-HA Affinity matrix (Roche) under denaturing conditions, unless otherwise stated. GFP-trap and […] Fab-trap agarose (Chromotek) were used according to manufacturer’s instructions. Cell lysis was performed using RIPA buffer (140 mM NaCl; 10 mM Tris-HCl, pH 8.0; 0.1% sodium deoxycholate; 1% Triton X-100; 0.1% SDS; 1 mM EDTA; 0.5 mM EGTA) or EBC buffer (50 mM Tris, pH 7.5; 150 mM NaCl; 1 mM EDTA; 0.5% NP-40, 1 mM DTT). IPs were washed in non-denaturing buffer (50 mM Tris-HCl, pH 7.5; 150 mM NaCl; 0.5 mM EDTA). Cell lysis and IP under partially denaturing conditions were performed using denaturing buffer (20 mM Tris-HCl, pH 7.5; 50 mM NaCl; 0.5% sodium deoxycholate; 0.5% NP-40; 0.5% SDS; 1 mM EDTA). All lysis and wash buffers were supplemented with 1 mM fresh PMSF Protease Inhibitor (Thermo), complete EDTA-free protease inhibitor Cocktail Tablets (Roche), 1.25 mM N-ethylmaleimide (Sigma) and 50 µM PR-619 (Calbiochem).

p97 (His6-p97 WT) = biological target: T1, p97 (His6-p97 WT) (Homo sapiens, UniProt P55072); assay: SPR: binding to immobilized His6-p97 WT; conditions: N167A mutants; in vitro binding experiments and SPR, up to 300 nM (peptides) or 100 nM (full-length)
T1 construct: Coomassie Blue staining of full-length and truncated His6-p97 proteins purified from E; made in house; host or cells: E. coli BL21(DE3)
T1 sequence (P55072 whole entry, the tested form may be a part): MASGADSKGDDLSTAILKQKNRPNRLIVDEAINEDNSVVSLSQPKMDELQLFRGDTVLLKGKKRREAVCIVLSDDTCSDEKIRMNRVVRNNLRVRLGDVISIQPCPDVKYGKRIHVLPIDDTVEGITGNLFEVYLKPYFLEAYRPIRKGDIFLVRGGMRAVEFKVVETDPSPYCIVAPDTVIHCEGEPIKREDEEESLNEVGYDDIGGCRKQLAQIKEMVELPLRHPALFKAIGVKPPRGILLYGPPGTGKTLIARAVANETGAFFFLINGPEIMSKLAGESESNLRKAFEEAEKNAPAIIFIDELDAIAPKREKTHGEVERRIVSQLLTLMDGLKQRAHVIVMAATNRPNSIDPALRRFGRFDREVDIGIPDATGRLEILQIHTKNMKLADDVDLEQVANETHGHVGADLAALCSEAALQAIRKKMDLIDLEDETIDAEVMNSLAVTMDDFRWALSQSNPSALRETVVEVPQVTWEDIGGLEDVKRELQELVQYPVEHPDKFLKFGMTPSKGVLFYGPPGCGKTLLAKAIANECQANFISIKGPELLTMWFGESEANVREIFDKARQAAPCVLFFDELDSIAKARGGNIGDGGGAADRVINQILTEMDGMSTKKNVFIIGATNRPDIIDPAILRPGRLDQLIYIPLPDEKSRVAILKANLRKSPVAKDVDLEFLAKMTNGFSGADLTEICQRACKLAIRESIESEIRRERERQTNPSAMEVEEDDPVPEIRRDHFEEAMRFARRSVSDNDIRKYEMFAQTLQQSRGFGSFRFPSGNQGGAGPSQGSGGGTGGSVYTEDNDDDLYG
Procedure: Surface Plasmon Resonance (SPR)
All SPR experiments were performed at 25 °C on a Biacore T200 instrument equipped with CM5 or CM7 sensor chips (Cytiva, Uppsala, Sweden). SPR running buffers and amine-coupling reagents (N-ethyl-N’-(3-dimethlyaminoproply)carbodiimide (EDC), N-hydroxysuccinimide (NHS), and ethanolamine HCl) were purchased from Cytiva. 1x PBS-P (11.9 mM NaH2PO4-Na2HPO4, pH 7.4; 137 mM NaCl; 2.7 mM KCl; 0.005% surfactant P20) supplemented with 0.5 mM TCEP was used as running buffer for the immobilization and the binding experiments with Strep-HA-VCF1 full-length proteins. For the VCF1 C-terminal peptide binding studies, 2% DMSO was additionally included in the running buffer. Eight solvent correction samples ranging from 1.5% DMSO to 2.8% DMSO prepared in either PBS-P, 0.5 mM TCEP or Tris-based buffer were used to correct buffer/DMSO mismatches. The CM5 chip was used for the kinetic analysis of the interactions between p97 proteins and VCF1 full-length proteins or VCF1 C-terminal peptides. p97 was immobilized at different densities on the carboxymethyl dextran sensor chip surface by amine-coupling chemistry. For kinetic analysis, p97 was immobilized at low density (~400 RU) on flow cells 2 (Fc2) and 3 (Fc3), respectively, of a CM5 chip. […] The dissociation rate of the p97-VCF1 complexes was monitored for 400 s. […] Binding experiments were measured in triplicates. […]

[3] = tested on: GFP-VCF1 WT / N167A interactome, U2OS cells; assay: GFP IP mass spectrometry, comparison of VCF1 WT and N167A interactomes (WT/N167A); assay type: binding, human; conditions: stably expressed GFP-VCF1, MS interactome
Procedure: U2OS (catalog no. HTB-96) cells were obtained from ATCC. HEK293-EBNA1-6E cells were a kind gift from Yves Durocher (National Research Council Canada, Montreal, Canada). All mammalian cell lines were cultured under standard conditions at 37 °C and 5% CO2 in DMEM (Thermo) supplemented with 10% FBS (v/v) and penicillin-streptomycin (Thermo). Recombination cloning-compatible U2OS cells were generated using the Flp-In T-Rex Core Kit (Thermo) according to the manufacturer’s instructions and maintained under selection using Blasticidin (Invivogen) and Zeocin (Thermo). To generate cell lines stably expressing GFP-VCF1, U2OS Flp-In T-Rex cells (Thermo) were co-transfected with GFP-VCF1 constructs and pOG44 (Thermo) plasmids, followed by selection with Hygromycin (Invitrogen). Single clones were carefully screened for uniform expression of ectopic GFP-VCF1 at low levels and maintained under selection with Blasticidin and Hygromycin. To induce GFP-VCF1 expression, cells were treated with Doxycycline (DOX) (0.5 µg/ml) for 16 h. U2OS cell lines stably expressing Ub(G76V)-GFP or Ub(G76V)-GFP-20AA were described previously. A U2OS cell line stably expressing Ub(G76V)-GFP-NES was generated under G418 (Invivogen) selection. Clones with low baseline GFP expression were visually screened for low basal GFP expression. All cell lines used in this study were regularly tested negative for mycoplasma infection and were not authenticated.
as §3
GFP-Trap agarose (Chromotek) pulldowns were subjected to partial on-bead digestion for peptide elution, by addition of 100 µl of elution buffer (50 mM Tris, pH 7.5; 2 M urea; 2 mM DTT; 20 µg/ml trypsin) and incubation at 37 °C for 30 min. To carry out alkylation, 25 mM CAA was added to the samples, which were then left to digest overnight at room temperature. Digestion was halted by introducing 1% TFA. Purification and desalting of peptides were done using SDB-RPS StageTips. This process required preparing two layers of SDB-RPS with 100 µl of wash buffer (0.2% TFA in H2O), onto which the peptides were loaded. After centrifugation for 5 min at 500 × g, peptides were washed using 150 µl wash buffer, eluted with 50 µl elution buffer (80% ACN; 1% ammonia) and vacuum-dried.
Liquid chromatography-mass spectrometry (LC-MS) analysis was conducted using an EASY-nLC-1200 system (Thermo Fisher Scientific), coupled with a timsTOF Pro spectrometer and a nano-electrospray ion source (Bruker Daltonik). […]

p97 ATPase = assay: ATPase assay; assay type: biochemical, human; conditions: p97 25 nM, ATP 375 μM
Procedure: For ATPase assays, 1 ml of 5x assay buffer (250 mM Tris, pH 7.4; 100 mM MgCl2; 5 mM EDTA) was mixed with 3 ml water, 5 μl 0.5 M TCEP and 5 μl 10% Triton X. To 40 ul of this assay buffer, recombinant proteins were added, mixed and incubated for 30 min. Final protein concentrations were as follows: p97 (25 nM), VCF1 (range of 0, 0.025, 1, 10 and 25 nM). The reactions were started by adding 10 μl ATP (final concentration of 375 μM) to the 40 μl reactions in a 96 well plate. After 35 min at room temperature, reactions were stopped by adding 50 μl BIOMOL Green reagent (Enzo Life Sciences). Absorbance at 635 nm was measured after 4 min and the relative ATPase activity calculated. Reactions were performed in duplicates and repeated three times.

[4] = tested on: Ub(G76V)-GFP-NES, U2OS cells; assay: Imaging of Ub(G76V)-GFP-NES after siRNA or p97 inhibitor; assay type: cell-based, human; conditions: siRNA 20 nM or p97i (NMS-873) 2 h
Procedure: as §1, §2

Compound: 5’-CACGCCUAAUCCUGUUGACAA-3’ [NPL4 siRNA]
- reduction in NPL4 abundance [1]: ~ 50%
- effect on Ub(G76V)-GFP level (Ub(G76V)-GFP, U2OS cells): increased Ub(G76V)-GFP abundance as expected

Compound: VCF1 N167A: full-length VCF1 with N167A point mutation in VRM
- residual binding of N167A mutant to p97 [2]: very weak residual binding to p97
- effect of alanine scan on p97 binding (p97): essential for VCF1 binding to p97
- binding to p97 WT (in words) (p97 (His6-p97 WT)): abrogated binding to p97
- p97 binding of N167A vs WT [3]: strong loss of p97 binding
- relative ATPase activity (p97 ATPase; 0.025 nM, replicate 1): 1.034
- relative ATPase activity (p97 ATPase; 0.025 nM, replicate 2): 0.974
- relative ATPase activity (p97 ATPase; 0.025 nM, replicate 3): 1.059
- relative ATPase activity (p97 ATPase; 1 nM, replicate 1): 1.009
- relative ATPase activity (p97 ATPase; 1 nM, replicate 2): 1.013
- relative ATPase activity (p97 ATPase; 1 nM, replicate 3): 1.024
- relative ATPase activity (p97 ATPase; 10 nM, replicate 1): 1.046
- relative ATPase activity (p97 ATPase; 10 nM, replicate 2): 0.967
- relative ATPase activity (p97 ATPase; 10 nM, replicate 3): 0.99

Compound: Cc1cc(OCc2nnc(SC3CCCC3)n2-c2cccnc2)ccc1-c1ccc(S(C)(=O)=O)cc1 [NMS-873]
- effect on Ub(G76V)-GFP-NES [4]: strong Ub(G76V)-GFP-NES accumulation
